Measurements from publication PMC4895335.

Biological target: T1, Ms4022 (TetR family regulator) (Mycobacterium smegmatis mc2 155) (UniProt A0QZH0)
T1 sequence: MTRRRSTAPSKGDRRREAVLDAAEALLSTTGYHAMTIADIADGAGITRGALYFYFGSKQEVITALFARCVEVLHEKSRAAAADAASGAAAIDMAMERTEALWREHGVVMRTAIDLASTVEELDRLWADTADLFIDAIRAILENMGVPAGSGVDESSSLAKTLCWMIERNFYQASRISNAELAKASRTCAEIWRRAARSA
Assay: EMSA
Conditions: EMSA: 50 mM Tris-HCl pH 7.5, 10 mM MgCl2, 50 mM NaCl, 4 C 30 min, 5% native PAGE in 0.5x TBE at room temperature; footprinting: binding as in EMSA, DNase I at …

Row | Sequence | binding
1 | ACGCCGATACTTGACGGAGTGCTTATTTTTTTCGACACTGTGCTTATTGAGATGGCGGGGCATGGAGGCAGCGATGCGAACAATCTTGATCGCCGGAACGAGCGGCGACTTCCGGCGAGCATTCGCCGAGGCGGTTGCGCCTTGGCGTGCACACAGTCGCATCCCCGACCTCGCCGACGCCGCTGTCGGCCCATCCGGGAAGGACCATCCGTGACGAAATCCA (double strand) [Ms4022p s1] | binds
2 | GCCTTACGGCACAACGACTTCGGGCTGGCGGCCCGGCGTCGTCGCATCGCGCACGTCCGGTCGGACGCCCCCAGTCGGCCCCTCCGGACTAGGCGTCCACGCCGATACTTGACGGAGTGCTTATTTTTTTCGACACTGTGCTTATTGAGATGGCGGGGCATGGAGGCAGCGATGCGAACAATCTTGATCGCCGGAACGAGCGGCGACTTCCGGCGAGCATTCGCCGAGGCGGTT (double strand) [Ms4022p s2] | binds
3 | GTCGATCTCCGTCGGGTCAACGGGCGAACTTCCCTGTCACGGCAGTCAGGTTAGCACGAATCCACACAGTGCTGATTTTTATCAGCTTGTTGTCGGCGACGCGGTCACCCGTTTCGGTCGCGAGGTGTCTGATCGGTCGCCATCGGTTATGGCCTTACGGCACAACGACTTCGGGCTGGCGGCCCGGCGTCGTCGCATCGCGCACGTCCGGTCGGACGCCCCCAGTCGGCCCCTCCGGACTAGGCGTCCACGCCGATACTTGACGGAGT (double strand) [Ms4022p s3] | binds
